Measurements as given in the supplement of paper PMC10567573.

B1: PBXIP1 (parent)
chain: FGEDGIFRHDRLRFRDFVDALEDS

Variants of: B1
Test: protein stability index of a GFP-peptide fusion (GPS, HEK-293T) (PSI 1-6); higher = more stable
Conditions: c terminus: a fixed tail appended
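Note: lentivirally expressed fusions sorted by FACS into six bins by GFP to DsRed ratio, PSI derived from sequencing read proportions per bin multiplied by bin number.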

Compared with FGEDGIFRHDRLRPRDFVDALEDS, FGEDGIFRHDRLRGRDFVDALEDS is higher in protein stability index: 3.01 for the first, 3.67 for the second.

Going from FGEDGIFRHDRLRMRDFVDALEDS to FGEDGIFRHDRLRQRDFVDALEDS, the protein stability index rises from 3.23 to 3.46.

Compared with FGEDGIFRHDRLRYRDFVDALEDS, FGEDGIFRHDRLRKRDFVDALEDS is higher in protein stability index: 2.57 for the first, 3.38 for the second.

Going from FGEDGIFRHDRLRSRDFVDALEDS to FGEDGIFRHDRLRLRDFVDALEDS, the protein stability index falls from 3.81 to 2.96.

First: FGEDGIFRHDRLRARDFVDALEDS
Second: FGEDGIFRHDRLRIRDFVDALEDS
The protein stability index of the first is higher: 3.43 for the first, 2.86 for the second.

Compared with FGEDGIFRHDRLRCRDFVDALEDS, FGEDGIFRHDRLRRRDFVDALEDS is higher in protein stability index: 1.99 for the first, 3.37 for the second.

First: FGEDGIFRHDRLRHRDFVDALEDS
Second: FGEDGIFRHDRLRDRDFVDALEDS
The protein stability index of the first is lower: 2.87 for the first, 3.84 for the second.

Compared with FGEDGIFRHDRLRNRDFVDALEDS, FGEDGIFRHDRLRWRDFVDALEDS is lower in protein stability index: 3.71 for the first, 2.2 for the second.

Compared with FGEDGIFRHDRLRVRDFVDALEDS, FGEDGIFRHDRLRTRDFVDALEDS is higher in protein stability index: 3.05 for the first, 3.62 for the second.

Compared with FGEDGIFRHDRLRERDFVDALEDS, FGEDGIFRHDRWRFRDFVDALEDS is lower in protein stability index: 3.86 for the first, 2.7 for the second.

First: FGEDGIFRHDRERFRDFVDALEDS
Second: FGEDGIFRHDRIRFRDFVDALEDS
The protein stability index of the first is higher: 3.51 for the first, 3.05 for the second.

Compared with FGEDGIFRHDRRRFRDFVDALEDS, FGEDGIFRHDRGRFRDFVDALEDS is higher in protein stability index: 2.58 for the first, 3.31 for the second.

Going from FGEDGIFRHDRFRFRDFVDALEDS to FGEDGIFRHDRVRFRDFVDALEDS, the protein stability index rises from 2.56 to 2.65.

First: FGEDGIFRHDRNRFRDFVDALEDS
Second: FGEDGIFRHDRDRFRDFVDALEDS
The protein stability index of the first is lower: 3.14 for the first, 3.38 for the second.

Going from FGEDGIFRHDRARFRDFVDALEDS to FGEDGIFRHDRSRFRDFVDALEDS, the protein stability index falls from 2.88 to 2.55.

Going from FGEDGIFRHDRPRFRDFVDALEDS to FGEDGIFRHDRKRFRDFVDALEDS, the protein stability index rises from 2.43 to 2.46.

First: FGEDGIFRHDRTRFRDFVDALEDS
Second: FGEDGIFRHDRMRFRDFVDALEDS
The protein stability index of the first is lower: 2.44 for the first, 2.51 for the second.

Compared with FGEDGIFRHDRCRFRDFVDALEDS, FGEDGIFRHDRYRFRDFVDALEDS is lower in protein stability index: 2.74 for the first, 2.71 for the second.

Compared with FGEDGIFRHDRQRFRDFVDALEDS, FGEDGIFRHDRHRFRDFVDALEDS is lower in protein stability index: 3.17 for the first, 2.73 for the second.

Compared with FGEDGIFRHDSLRFRDFVDALEDS, FGEDGIFRHDYLRFRDFVDALEDS is lower in protein stability index: 2.73 for the first, 2.35 for the second.

Going from FGEDGIFRHDILRFRDFVDALEDS to FGEDGIFRHDLLRFRDFVDALEDS, the protein stability index falls from 2.43 to 2.33.

First: FGEDGIFRHDPLRFRDFVDALEDS
Second: FGEDGIFRHDQLRFRDFVDALEDS
The protein stability index of the first is lower: 3.13 for the first, 3.29 for the second.

Going from FGEDGIFRHDNLRFRDFVDALEDS to FGEDGIFRHDHLRFRDFVDALEDS, the protein stability index falls from 3.09 to 2.83.

Compared with FGEDGIFRHDMLRFRDFVDALEDS, FGEDGIFRHDKLRFRDFVDALEDS is higher in protein stability index: 2.44 for the first, 2.57 for the second.

Going from FGEDGIFRHDTLRFRDFVDALEDS to FGEDGIFRHDWLRFRDFVDALEDS, the protein stability index falls from 3.02 to 2.49.

First: FGEDGIFRHDVLRFRDFVDALEDS
Second: FGEDGIFRHDRLRFYDFVDALEDS
The protein stability index of the first is higher: 2.46 for the first, 2.22 for the second.

Compared with FGEDGIFRHDRLRFTDFVDALEDS, FGEDGIFRHDRLRFIDFVDALEDS is lower in protein stability index: 2.44 for the first, 2.23 for the second.

Going from FGEDGIFRHDRLRFQDFVDALEDS to FGEDGIFRHDRLRFFDFVDALEDS, the protein stability index falls from 3.06 to 2.68.

Going from FGEDGIFRHDRLRFHDFVDALEDS to FGEDGIFRHDRLRFGDFVDALEDS, the protein stability index rises from 2.48 to 3.41.

Compared with FGEDGIFRHDRLRFNDFVDALEDS, FGEDGIFRHDRLRFKDFVDALEDS is lower in protein stability index: 3.38 for the first, 2.9 for the second.

Going from FGEDGIFRHDRLRFCDFVDALEDS to FGEDGIFRHDRLRFSDFVDALEDS, the protein stability index falls from 2.79 to 2.54.

First: FGEDGIFRHDRLRFWDFVDALEDS
Second: FGEDGIFRHDRLRFMDFVDALEDS
The protein stability index of the first is lower: 1.97 for the first, 2.54 for the second.

Going from FGEDGIFRHDRLRFEDFVDALEDS to FGEDGIFRHDRLRFDDFVDALEDS, the protein stability index falls from 3.61 to 2.87.

Going from FGEDGIFRHDRLRFADFVDALEDS to FGEDGIFRHDRLRFPDFVDALEDS, the protein stability index rises from 2.38 to 3.36.

First: FGEDGIFRHDRLRFVDFVDALEDS
Second: FGEDGIFRHDRLRFLDFVDALEDS
The protein stability index of the first is lower: 2.02 for the first, 2.48 for the second.

First: FGEDGIFRHDRLRFRCFVDALEDS
Second: FGEDGIFRHDRLRFRFFVDALEDS
The protein stability index of the first is higher: 3.01 for the first, 2.12 for the second.

Compared with FGEDGIFRHDRLRFRAFVDALEDS, FGEDGIFRHDRLRFREFVDALEDS is higher in protein stability index: 2.41 for the first, 3.17 for the second.

Compared with FGEDGIFRHDRLRFRGFVDALEDS, FGEDGIFRHDRLHFRDFVDALEDS is higher in protein stability index: 1.97 for the first, 2.57 for the second.

Compared with FGEDGIFRHDRLIFRDFVDALEDS, FGEDGIFRHDRLYFRDFVDALEDS is higher in protein stability index: 2.26 for the first, 2.32 for the second.

Compared with FGEDGIFRHDRLSFRDFVDALEDS, FGEDGIFRHDRLPFRDFVDALEDS is higher in protein stability index: 2.92 for the first, 3.35 for the second.

First: FGEDGIFRHDRLQFRDFVDALEDS
Second: FGEDGIFRHDRLCFRDFVDALEDS
The protein stability index of the first is higher: 3.74 for the first, 2.73 for the second.

First: FGEDGIFRHDRLEFRDFVDALEDS
Second: FGEDGIFRHDRLLFRDFVDALEDS
The protein stability index of the first is higher: 4.02 for the first, 2.71 for the second.

Compared with FGEDGIFRHDRLDFRDFVDALEDS, FGEDGIFRHDRLFFRDFVDALEDS is lower in protein stability index: 3.29 for the first, 2.25 for the second.

Compared with FGEDGIFRHDRLVFRDFVDALEDS, FGEDGIFRHDRLWFRDFVDALEDS is lower in protein stability index: 2.72 for the first, 1.99 for the second.

Compared with FGEDGIFRHDRLKFRDFVDALEDS, FGEDGIFRHDRLGFRDFVDALEDS is higher in protein stability index: 2.85 for the first, 2.9 for the second.

First: FGEDGIFRHDRLMFRDFVDALEDS
Second: FGEDGIFRHDRLNFRDFVDALEDS
The protein stability index of the first is lower: 2.79 for the first, 3.56 for the second.

Compared with FGEDGIFRHDRLTFRDFVDALEDS, FGEDGIFRHDRLAFRDFVDALEDS is lower in protein stability index: 3.26 for the first, 3.13 for the second.
